Assay results as given in US20160194399A1 (CYTOMX THERAPEUTICS, published 2016).

Columns and labels:
[1] = target: T1, SP34-binding peptide 15860; assay: flow cytometry on peptide-displaying E. coli, 10 nM SP34-dylight-488 with 100 nM isotype control, normalised to peptide expression (yPet-Mona)
T1 peptide: VYYCGGNESLCGERR

[2] = target: T2, SP34-binding peptide 15263; assay: as above
T2 peptide: WYSGGCEAFCGILSS

[3] = target: T3, SP34-binding peptide 15003; assay: as above
T3 peptide: GYRWGCEWNCGGITT

[4] = target: T4, SP34-binding peptide 15865; assay: as above
T4 peptide: MMYCGGNEVLCGPRV

[5] = target: T5, SP34-binding peptide 14995; assay: as above
T5 peptide: YSLWGCEWGCDRGLY

[6] = target: T6, SP34-binding peptide 15864; assay: as above
T6 peptide: FMCQQRMWGNEFCHQ

[7] = target: T7, SP34-binding peptide 15286; assay: as above
T7 peptide: GYSGGCEFRCYQLYS

[8] = target: T1, SP34-binding peptide 15860; assay: flow cytometry on peptide-displaying E. coli, 0.1 nM SP34-dylight-488 with 100 nM isotype control, normalised to peptide expression (yPet-Mona)
[9] = target: T2, SP34-binding peptide 15263; assay: as above
[10] = target: T3, SP34-binding peptide 15003; assay: as above
[11] = target: T4, SP34-binding peptide 15865; assay: as above
[12] = target: T5, SP34-binding peptide 14995; assay: as above
[13] = target: T6, SP34-binding peptide 15864; assay: as above
[14] = target: T7, SP34-binding peptide 15286; assay: as above
[15] = target: T1, SP34-binding peptide 15860; assay: flow cytometry on peptide-displaying E. coli, 1 nM SP34-dylight-488 with 100 nM free human CD3ε as competitor, normalised to peptide expression (yPet-Mona)
[16] = target: T2, SP34-binding peptide 15263; assay: as above
[17] = target: T3, SP34-binding peptide 15003; assay: as above
[18] = target: T4, SP34-binding peptide 15865; assay: as above
[19] = target: T5, SP34-binding peptide 14995; assay: as above
[20] = target: T6, SP34-binding peptide 15864; assay: as above
[21] = target: T7, SP34-binding peptide 15286; assay: as above
[22] = target: T1, SP34-binding peptide 15860; assay: flow cytometry on peptide-displaying E. coli, 100 nM SP34-dylight-488 with 100 nM isotype control, normalised to peptide expression (yPet-Mona)
[23] = target: T2, SP34-binding peptide 15263; assay: as above
[24] = target: T3, SP34-binding peptide 15003; assay: as above
[25] = target: T4, SP34-binding peptide 15865; assay: as above
[26] = target: T5, SP34-binding peptide 14995; assay: as above
[27] = target: T6, SP34-binding peptide 15864; assay: as above
[28] = target: T7, SP34-binding peptide 15286; assay: as above
[29] = target: T1, SP34-binding peptide 15860; assay: flow cytometry on peptide-displaying E. coli, 1 nM SP34-dylight-488 with 100 nM isotype control, normalised to peptide expression (yPet-Mona)
[30] = target: T2, SP34-binding peptide 15263; assay: as above
[31] = target: T3, SP34-binding peptide 15003; assay: as above
[32] = target: T4, SP34-binding peptide 15865; assay: as above
[33] = target: T5, SP34-binding peptide 14995; assay: as above
[34] = target: T6, SP34-binding peptide 15864; assay: as above
[35] = target: T7, SP34-binding peptide 15286; assay: as above

B1: Anti-CD3ε antibody SP34 (antibody, V domains shown)
VH: EVQLVESGGGLVQPKGSLKLSCAASGFTFNTYAMNWVRQAPGKGLEWVARIRSKYNNYATYYADSVKDRFTISRDDSQSILYLQMNNLKTEDTAMYYCVRHGNFGNSYVSWFAYWGQGTLVTVSA
VL: QAVVTQESALTTSPGETVTLTCRSSTGAVTTSNYANWVQEKPDHLFTGLIGGTNKRAPGVPARFSGSLIGDKAALTITGAQTEDEAIYFCALWYSNLWVFGGGTKLTVL
notes: Bought mouse monoclonal (BD Biosciences Cat# 556610); also called SP34 antibody
expression normalized binding [1]: 1.72
expression normalized binding [2]: 0.69
expression normalized binding [3]: 0.39
expression normalized binding [4]: 1.08
expression normalized binding [5]: 0.11
expression normalized binding [6]: 0.63
expression normalized binding [7]: 0.66
expression normalized binding [8]: 0.48
expression normalized binding [9]: 0.24
expression normalized binding [10]: 0.11
expression normalized binding [11]: 0.21
expression normalized binding [12]: 0.08
expression normalized binding [13]: 0.15
expression normalized binding [14]: 0.28
expression normalized binding [15]: 0.51
expression normalized binding [16]: 0.34
expression normalized binding [17]: 0.12
expression normalized binding [18]: 0.26
expression normalized binding [19]: 0.08
expression normalized binding [20]: 0.3
expression normalized binding [21]: 0.34
expression normalized binding [22]: 4.55
expression normalized binding [23]: 2.28
expression normalized binding [24]: 0.69
expression normalized binding [25]: 2.24
expression normalized binding [26]: 0.51
expression normalized binding [27]: 1.88
expression normalized binding [28]: 1.72
expression normalized binding [29]: 0.52
expression normalized binding [30]: 0.35
expression normalized binding [31]: 0.2
expression normalized binding [32]: 0.79
expression normalized binding [33]: 0.13
expression normalized binding [34]: 0.36
expression normalized binding [35]: 0.42
